Results taken from a protein production outcome set (Wang et al. 2014).

Assay: label from the status in PepcDB records

Row | Sequence | protein production
1 | MTQMRFTEEDFNTFTIEGLDARMEVLKETVRPKLTALGEHFAPTLSALTGDEMFPHVAKHARRSVNPPADSWVAFANSKRGYKKLPHFQIGLWESHVFVWFAIIYESPIKEEYGKLLEVNQETITKNIPDSFVWSADHTKPGVHKQSEMDKEQLKTLFERLQTVKKAELLCGIQLQKEEVLNMNNQEFLQRIDDAFKQLAFLYRLTQKVTQALEHHHHHH | not failed
2 | MTQPELTPAQRTEVELLARGRADKSRVLRDLKLPETPEAAHALLLRLGVWDEARTPYADRLRAALNAVELPVPDFDPAEERLDLTHLPTFAIDDEGNQDPDDAVGVEDLGGGLTRLWVHVADVAALVAPDSPLDLEARARGATLYLPDRTIGMLPDELVAKAGLGLHEVSPALSICLDLDPDGNAEAVDVLLTRVKVQRLAYQEAQARLEAGEEPFVTLARLARASRRLREGEGALSIDLPEVRVKADETGASVFPLPKPEMRTVVQECMTLAGWGTAIFADDNEIPLPFATQDYPTREVAGDTLPAMWARRKTLARTRFQPSPGPHHGMGLDLYAQATSPMRRYLDLVVHQQLRAFLAGRDPLSSKVMAAHIAESQMNADATRQAERLSRRHHTLRFIAAQPERVWDAVVVDRRGAQATLLIPDLAFDVQVNTPAAPGTALQVQFADIDLPQMRVRARSVLEHHHHHH | not failed
3 | MTQPHQIILLAHGSSDARWCETFEKLAEPTVESIENAAIAYMELAEPSLDTIVNRAKGQGVEQFTVVPLFLAAGRHLRKDVPAMIERLEAEHGVTIRLAEPIGKNPRLGLAIRDVVKEELERSEH | not failed
4 | MTQSAPEFKVLQSIAFLAVVLQSSLLYTMNQGNVLLEQSLIMGMLFNLAKFSAPAFIFIVGFHLIRHYTKQLVYKEYISEKATHLLIPYFFWSILYLLTTNDLITLQGGIKSLLLGTAAPHLWYVIMMFQIHLLFPLLCTLFYWFQKRTENKKDIYKYMTFFACLYFLLMWFSSHYIFNGEKLTSSTILHYTDRSFLFYSFYFVMGGIAAVPLKTWRLFVMKHIPLITILFFILFLFINYELFSFYGANSIHLTVSTYLKPSMFLYIVCEIIILYVLSIMIVQRRGFLYKTLRFIGNYTYGAYLAHLFFLQLCTKFLSLFTLQENTILYSLLLFVLTAIISISTMVICSTIPFHTWITGPSPTTKMKWTKVVFRKNHKKLFKPYI | failed
5 | MTQTTPQPDPSRLRDELVRLHGKASPEWDSLVRLDPRFVDAYLKFAGVPQRRNHLDDKTRAFIALAADACATQLYAPGVARHIERALSFGATREELIEVLELVSTIGIHTSNVGVPVLLEVLEEEGLRKGAPPLDERRQKLKAEFETNRGYWHPTWEGLLELDPDLFEAYVEFSSVPWRTGVLSPKIKEFMYCAFDASATHLYVPGLKLHIRNALRYGATAEELMELLEIVSVTGIHGAELGAPLLEAALKRSGAAAGEPHA | not failed
6 | MTQVRETVSFKAGDVILYPGVPGPRDRAYRVLEGLVRLEAVDEEGNALTLRLVRPGGFFGEEALFGQERIYFAEAATDVRLEPLPENPDPELLKDLAQHLSQGLAEAYRRIERLATQRLKNRMAAALLELSETPLAHEEEGKVVLKATHDELAAAVGSVRETVTKVIGELAREGYIRSGYGKIQLLDLKGLKELAESRGQGR | not failed
7 | MTQVSIIVPVLNEESTIHSAVSRLCRDFPDCELIVVDGGSTDATAELAALHATVIGSERGRAKQMNEGARHASGGILWFIHADTAIEPEALGQIRSVLADPAVVAGGLTLRFDRRTPALNYLAWTSNARARRLHHIFGDQAMFIRRTAFDELGGFPDLAIMEDLEMSRRLHRRGPLRLLPATSTASSRRLTAHGTWRMIAFMQYLKLLYFAGADPEAIRARYTAGPRLFPKRNPATLEHHHHHH | failed
8 | MTQYTHIRNATGKLTIKNTTFLIDPFLAPKDTYPGFEGTFNYQQRMPMVDLPLSMDDLLSNVTAVVVTHTHLDHWDDTAINSIPKSLPIFVQNTADKELITSQGFIDVRIIFESLEFNGITLRKTGGSHGTVEMYANPVLAPLAGDAMGVIFEAADEPTVYLVGDTVWTSDVEKALLRFDPNVIIMNTGYAQILGFEDSIIMGTKDIGRMVVRKPEAKIIAVHMDTVNHTATSRKDVRKFIKGNNIESHVAVPEDGETITL | not failed
9 | MTRAINDPGNEDPGSLLETDADALLGGAAAQAPEERCRLAAQACIRACERYLALCTESSREQRQHAGDCADLCRLAALLLERRSPWAPAACELAARYALACAERCDGDEPLERECAGACRRFVEACRPLLPALEHHHHHH | not failed
10 | MTRAKAPMEGVKLNSLLKVEDFATQSQFLGVNPIWNNNSTQLVEPPSIVNDEEEETEPLLPVEFTLVERNLEDGLVEEIIFSSGGEIDVYDLQGLCDKVGWPRRPLVKLAAALKNSYMVATLHSVMKSSSDSDSSEGGDGEKQQEKKLIGMARATSDHAFNATIWDVLVDPEYQGQGLGKALVEKLVRALLQRDIGNISLFADSQVVDFYQNLGFEADPEGIKGMFWYPK | failed
11 | MTREIIPILPEAPVETARSGNALPLLREIAEHLHHLLETGEASTIDLSALPLTPGDLEWLRAELGGGEVSVTLHADGASTLDETAFPGVWWIIHRNAQGAVTTQFIEVAFVPELVKSPRADVAAARAALVLRMADL | not failed
12 | MTRKSFPFFLLGLILTVGIDQAVKYWVMHNIPLGTETPLLPFLSLYHVRNSGIAFSFFSSFSHWGLIFLTLIILIFLLWLWKNTQYNKSLTRFGFTLIIGGAIGNLIDRICFYYVIDYILFYINDVFYFAVFNLADTFITLGVIAIIIEELLSWIKRKSTFSE | failed
13 | MTRLFSRPYPLGATLNKEGCNFSIHAPGVKDIQLALFASDGSYSLHDLPNEYAGIRHTFIPDIKPGQKYGYVVTRRDEPLLISDPYAKSLDKALHYHPPYTPAKSFDMPKCVVIE | failed
14 | MTRPAHPISRYPVPELAALPDDIRQRILEVQDKAGFVPNVFLTLAHRPDEFRAFFAYHDALMLKDGGLTKGEREMIVVATSAANQCLYCVVAHGAILRIYEKKPLVADQVAVNYLKADIPPRQRAMLDFALKVCKASHEVNEADFEALREHGFTDEDAWDIAAITAFFGLSNRMANTIGMRPNDEFFLMGRVPKSK | not failed
15 | MTRRAAEEILPSSLFRDPDTERVTARTGAYLKIGVIAPALMVADVWLAQQLFPGFDAGAQFISELGGPEAPMPEIFNYGMVIAGIAGLFAGAGFAHALEHAGGRRVVSAFAGLFVALTGLGAIFAGIFHWPDPMHRACGVGLGIQFAPLFAAWALWGKPDYRRLAQFSLGWFFGLLLVFALLTGVWNVRTGYDVGYWQRGHAFLGLLWLAIAAWTLERGWRAAVMSEIETASA | failed
16 | MTRRGVALVARRLPSSPGRVYAVKIDEGEDVHSVLSSLAEAEDLGFAMVTGIGGMAEATVAFYSPPEATYYTVDVKPPEGRVIEVAAMTGNIVKTSQGYSVHIHVALGVSPGKSISGHLVKGVVKPFMEVFVVELVSGQGTPGTSVFDHREGFKASYKRLELEHHHHHH | failed
17 | MTRRPLLLPALGLALGVGLGLEGATVPPAALGALPLALLPRLAPLAFAAAGWLAAASARVPPAAPPDGAVLVRGRVVGAPDRLEDRLRFPVRTAGGALLEAWAEPTPWPLALGDEVLFRATLRAPAGRRNPGGRDPGDRLRSGGAALVALADGPVVRTAAPAAASRLERARDRLAEAAGRWLPPDQAALVRAIGTGDRAALDPEASASFARSGLAHVLAVSGFHLVVVAFGLERLLRALLLRADAVAARADPRRVAAALTLPCALLYALATGAGAPVVRAALAAAVILAGALLDRAADPLNSLALAALAILAAEPAALLDASFQLSFAAVAGLALWATPLRGALPVARPAPGSWRARLLEPFLSGAAATVAATLATAPVLAFHFRQLPLLGVAANVAAIPLGAALTALAALAAVAAAASPLAAAPFLLAAGPLAAALRAVSDAAAAPRWGAVGLASPGGWAAAAATALVLGVPALPRRLRLGAGALAAALLLLPGPLRAAAARARGGLEVIFVSVGQGDAALLRLPDGSAVLVDGGGAAGGGPDPGARDLVPLLRDLGVRRLEAVFVSHPHPDHVLGLEAVARAFPVARAYSNGDRGDGPAREVLAALAPVTLAPGEAWERAGVRFEALGGDRTPFAANDASLVLRATYGATTFLFPGDVEAAGEAAAVARGGLRADVVKIPHHGSRTSSTEPFVRAVRARWAVACLGAHNRFGFPHPEPLARWAAAGAEVLRTDEGAVRFLSDGRAVRRVEAGSVLDALATWREQP | failed
